The target of experiment [1] is T1, COVID S1 RBD Fc fusion (Antigen 1) (SARS-CoV-2, UniProt P0DTC2 319-541). Briefly: phage ELISA. For orientation: An ELISA detects its analyte on a solid surface through an enzyme-linked reagent.
Experiment [2] deals with T2, S1 Fc fusion protein (SARS-CoV-2, UniProt P0DTC2 14-685). Nature of the experiment: phage ELISA.
Experiment [3] addresses T3, COVID S1 RBM Fc fusion (Antigen 2) (SARS-CoV-2, UniProt P0DTC2 437-508). Briefly: phage ELISA.
The target in experiment [4] is T1, COVID S1 RBD Fc fusion (Antigen 1). Briefly: phage ELISA. The source holds these as a separate data set.
Experiment [5] concerns the target T2, S1 Fc fusion protein. Nature of the experiment: phage ELISA. The source holds these as a separate data set.
The target in experiment [6] is T3, COVID S1 RBM Fc fusion (Antigen 2). Nature of the experiment: phage ELISA. The source holds these as a separate data set.
Experiment [7] has as its target T4, COVID S1 RBD Fc fusion (Antigen 1) (SARS-CoV-2, UniProt P0DTC2 319-541). Nature of the experiment: phage ELISA. This is another data set of the same source.
Experiment [8] concerns the target T5, S1 Fc fusion protein (SARS-CoV-2, UniProt P0DTC2 14-685).
T5 construct: domain: S1
Nature of the experiment: phage ELISA.

Experiment [9] has as its target T6, COVID S1 RBM Fc fusion (Antigen 2) (SARS-CoV-2, UniProt P0DTC2 437-508).
T6 construct: domain: RBM
Nature of the experiment: phage ELISA.

Experiment [10] has as its target T4, COVID S1 RBD Fc fusion (Antigen 1). Nature of the experiment: phage ELISA. The source holds these as a separate data set.
For experiment [11], the target named is T5, S1 Fc fusion protein. Briefly: phage ELISA. The source holds these as a separate data set.
Experiment [12] addresses T6, COVID S1 RBM Fc fusion (Antigen 2). Nature of the experiment: phage ELISA. The source holds these as a separate data set.
For experiment [13], the target named is T7, SARS-CoV-2 S1 (antigen of the Carterra SPR kinetics) (SARS-CoV-2, UniProt P0DTC2 16-685). Nature of the experiment: Carterra SPR.
Experiment [14] has as its target T7, SARS-CoV-2 S1 (antigen of the Carterra …). Nature of the experiment: Carterra SPR. The source holds these as a separate data set.

Like-named read-outs stand apart in the source and are kept apart here.

B1: SARS-CoV-2 variant 1-48 (antibody, V domains shown)
VH: EVQLLESGGGLVQPGGSLRLSCAASGFTFSSHAMYWVRQAPGKGLEWVSAISGSAGSTYYADSVKGRFTISRDNSKNTLYLQMNSLRAEDTAVYYCAHDTKDFWSGYCIFDPWGQGTLVTVSS
VL: QSALTQPASVSGSPGQSITISCTGTSSDIGSYNLVSWYQQHPGKAPKLMIYEGTKRPSGVSNRFSGSKSGNTASLTISGLQAEDEADYYCCSYAGSRTYVFGGGTKLTVL
With B1, the “ELISA fold over background” value stood at 2.1 fold in [1]; 0.8 fold with S1 Fc fusion protein [2]; 0.8 fold in experiment [3]; 2.1 fold in experiment [4]; 0.8 fold in the experiment with S1 Fc fusion protein [5]; 0.8 fold in experiment [6].

B2: SARS-CoV-2 variant 1-35 (antibody, V domains shown)
VH: EVQLLESGGGLVQPGGSLRLSCAASGFTFSNYAMSWVRQAPGKGLEWVSDISGSGGSTYYADSVKGRFTISRDNSKNTLYLQMNSLRAEDTAVYYCVKGTIPIFGVIRSAFDYWGQGTLVTVSS
VL: QSALTQPASVSGSPGQSITISCTGTSSDVGSYSLVSWYQQHPGKAPKLMIYEGTKRPSGVSNRFSGSKSGNTASLTISGLQAEDEADYYCCSYAGSYSYVVFGGGTKLTVL
Take B2: the “ELISA fold over background” value in experiment [1] turned out to be 1.8 fold; in the experiment with S1 Fc fusion protein [2], 1.4 fold; in experiment [3], 1.6 fold; in [4], 1.8 fold; with S1 Fc fusion protein [5], 1.4 fold; in experiment [6] it was 1.6 fold.

B3: SARS-CoV-2 variant 1-36 (antibody, V domains shown)
VH: EVQLLESGGGLVQPGGSLRLSCAASGLTFSSYAMSWVRQAPGKGLEWVSDISGSGGSTYYADSVKGRFTISRDNSKNTLYLQMNSLRAEDTAVYYCVKGTIPIFGVIRSAFDYWGQGTLVTVSS
VL: QSALTQPASVSGSPGQSITISCTGTSSDVGSYSLVSWYQQHPGKAPKLMIYEGDKRPSGVSNRFSGSKSGNTASLTISGLQAEDEADYYCCSYAGSYSYVVFGGGTKLTVL
With B3, the “ELISA fold over background” value in experiment [1] is 1.2 fold; in the experiment with S1 Fc fusion protein [2], 1.1 fold; in [3] it was 0.8 fold; in experiment [4] it was 1.2 fold; with S1 Fc fusion protein [5] it was 1.1 fold; in experiment [6], 0.8 fold.

B4: SARS-CoV-2 variant 1-10 (antibody, V domains shown)
VH: EVQLLESGGGLVQPGGSLRLSCAASGFTFSSYDMSWVRQAPGKGLEWVSVISGSGGSTYYADSVKGRFTISRDNSKNTLYLQMNSLRAEDTAVYYCAKGPLVGWYFDLWGQGTLVTVSS
VL: QSALTQPASVSGSPGQSITISCTGTSSNVGSYNLVSWYQQHPGKAPKLMIYEGTKRPSGVSNRFSGSKSGNTASLTISGLQAEDEADYYCCSYAGSSSFVVFGGGTKLTVL
Take B4: the “ELISA fold over background” value in [1] turned out to be 17.4 fold; with S1 Fc fusion protein [2] it was 1.3 fold; in [3], 1.1 fold; in [4], 17.4 fold; in the experiment with S1 Fc fusion protein [5], 1.3 fold; in experiment [6], 1.1 fold.

B5: SARS-CoV-2 variant 1-7 (antibody, V domains shown)
VH: EVQLLESGGGLVQPGGSLRLSCAASGFTFSSYDMSWVRQAPGKGLEWVSVISGSGGSTYYADSVKGRFTISRDNSKNTLYLQMNSLRAEDTAVYYCAKGPLVGWYFDLWGQGTLVTVSS
VL: QSALTQPASVSGSPGQSITISCTGTSSDFGSYNLVSWYQQHPGKAPKLMIYEGNKRPSGVSNRFSGSKSGNTASLTISGLQAEDEADYYCCSYAGSSTFVVFGGGTKLTVL
In the case of B5, the “ELISA fold over background” value in experiment [1] was determined as 3.3 fold; with S1 Fc fusion protein [2], 1.7 fold; in experiment [3], 1.6 fold; in experiment [4], 3.3 fold; with S1 Fc fusion protein [5] it was 1.7 fold; in experiment [6], 1.6 fold.

B6: SARS-CoV-2 S1 variant 2-5 (antibody, V domains shown)
VH: EVQLLESGGGLVQPGGSLRLSCAASGFTFSDFAMAWVRQAPGKGLEWVSAISGSGDITYYADSVKGRFTISRDNSKNTLYLQMNSLRAEDTAVYYCAREADGLHSPWHFDLWGQGTLVTVSS
VL: DIQMTQSPSSLSASVGDRVTITCRASQSIHTYLNWYQQKPGKAPKLLIYAASALASGVPSRFSGSGSGTDFTLTISSLQPEDFATYYCQQSYSAPPYTFGQGTKVEIK
The koff is a measure of how fast the partners let go of each other. Lower therefore signals a long-lived complex. The term kon denotes a measure of how fast the partners come together. Low values mean slow association, high ones fast association. The Kd is the constant that tells how readily two partners part at equilibrium. A lower Kd goes with a tighter complex. For B6, the “ELISA fold over background” value in experiment [7] worked out at 35.9 fold; with S1 Fc fusion protein [8] it was 24.3 fold; in experiment [9], 1.1 fold; in [10], 35.9 fold; with S1 Fc fusion protein [11], 24.3 fold; in [12] it was 1.1 fold. The koff in experiment [13] and in experiment [14] was 0.000259 s⁻¹ each time. The kon in experiment [13] and in experiment [14] was 93900 M⁻¹ s⁻¹ in each case. Moreover, the dissociation constant (Kd) in experiment [14] was determined as 2.8 nM.

B7: SARS-CoV-2 variant 1-25 (antibody, V domains shown)
VH: EVQLLESGGGLVQPGGSLRLSCAASGFTFSDYAMNWVRQAPGKGLEWVSIISGSGGSTYYADSVKGRFTISRDNSKNTLYLQMNSLRAEDTAVYYCAREGYRDYLWYFDLWGQGTLVTVSS
VL: QSALTQPASVSGSPGQSITISCSGTSSDVGSYNLVSWYQQHPGKAPKLMIYEASKRPSGVSNRFSGSKSGNTASLTISGLQAEDEADYYCCSYAGSSTVFGGGTKLTVL
For the molecule B7, the “ELISA fold over background” value in [1] is 2.7 fold; in the experiment with S1 Fc fusion protein [2], 1 fold; in [3] it was 0.8 fold; in experiment [4] it was 2.7 fold; with S1 Fc fusion protein [5], 1 fold; in experiment [6], 0.8 fold.

B8: SARS-CoV-2 variant 1-23 (antibody, V domains shown)
VH: EVQLLESGGGLVQPGGSLRLSCAASGFTFSSYAISWVRQAPGKGLEWVSIISGSGGSTYYADSVKGRFTISRDNSKNTLYLQMNSLRAEDTAVYYCAREGYRDYLWYFDLWGQGTLVTVSS
VL: QSALTQPASVSGSPGQSITISCTGTSNDVGSYNLVSWYQQHPGKAPKLMIYEGNKRPSGVSNRFSGSKSGNTASLTISGLQAEDEADYYCCSYAGSYTVFGGGTKLTVL
B8: the “ELISA fold over background” value in experiment [1] turned out to be 3.6 fold; with S1 Fc fusion protein [2], 1.6 fold; in [3], 1.6 fold; in experiment [4], 3.6 fold; with S1 Fc fusion protein [5], 1.6 fold; in experiment [6], 1.6 fold.

B9: SARS-CoV-2 variant 1-24 (antibody, V domains shown)
VH: EVQLLESGGGLVQPGGSLRLSCAASGFTFSSYAMNWVRQAPGKGLEWVSIISGSGGSTYYADSVKGRFTISRDNSKNTLYLQMNSLRAEDTAVYYCAREGYRDYLWYFDLWGQGTLVTVSS
VL: QSALTQPASVSGSPGQSITISCTGTSSDVGYYNLVSWYQQHPGKAPKLMIYEGNKRPSGVSNRFSGSKSGNTASLTISGLQAEDEADYYCCSYAGGSVVFGGGTKLTVL
As for B9, the “ELISA fold over background” value worked out at 11 fold in experiment [1]; 1.1 fold in the experiment with S1 Fc fusion protein [2]; 1.3 fold in experiment [3]; 11 fold in [4]; 1.1 fold in the experiment with S1 Fc fusion protein [5]; 1.3 fold in experiment [6].

B10: SARS-CoV-2 S1 variant 2-2 (antibody, V domains shown)
VH: EVQLLESGGGLVQPGGSLRLSCAASGFTFSRHAMNWVRQAPGKGLEWVSGISGSGDETYYADSVKGRFTISRDNSKNTLYLQMNSLRAEDTAVYYCARDLPASYYDSSGYYWHNGMDVWGQGTLVTVSS
VL: DIQMTQSPSSLSASVGDRVTITCRASQTINTYLNWYQQKPGKAPKLLIYSASTLQSGVPSRFSGSGSGTDFTLTISSLQPEDFATYYCQQSYSTFTFGQGTKVEIK
Consider B10, for which the “ELISA fold over background” value in experiment [7] is 39.6 fold; with S1 Fc fusion protein [8], 4.7 fold; in experiment [9], 1.1 fold; in [10], 39.6 fold; with S1 Fc fusion protein [11] it was 4.7 fold; in [12], 1.1 fold. The dissociation rate constant (koff) in [13] and in [14] was 0.000906 s⁻¹ throughout. In addition, the kon in experiment [13] and in experiment [14] was 77400 M⁻¹ s⁻¹ throughout. In addition, the dissociation constant (Kd) in [14] stood at 11.7 nM.

These data come from patent US20210355194A1 (TWIST BIOSCIENCE, published 2021).
